This note sets out measurements from publication PMC4385409.

The target of the assay is cytoplasmic dynein-1 heavy chain (bovine) (bovine). Kind of assay: negative stain EM.

In the case of “cytoplasmic dynein-1 heavy chain (bovine) (natural protein)”, the stoichiometry N was 2.
